Measured values taken from patent publication US7393670B2, “Tyrosyl-tRNA synthetase variants” (Japan Science and Technology Agency, priority 2001, dated 2008).
Where a chain is given by its changes, count along the chain named.

B1: Wild-type: wild-type tyrosyl-tRNA synthetase of E. coli (SEQ ID NO: 1): position 37 Tyrosine, position 195 Glutamine (protein, listed as Escherichia coli)
chain: MASSNLIKQLQERGLVAQVTDEEALAERLAQGPIALYCGFDPTADSLHLGHLVPLLCLKRFQQAGHKPVALVGGATGLIGDPSFKAAERKLNTEETVQEWVDKIRKQVAPFLDFDCGENSAIAANNYDWFGNMNVLTFLRDIGKHFSVNQMINKEAVKQRLNREDQGISFTEFSYNLLQGYDFACLNKQYGVVLQIGGSDQWGNITSGIDLTRRLHQNQVFGLTVPLITKADGTKFGKTEGGAVWLDPKKTSPYKFYQFWINTADADVYRFLKFFTFMSIEEINALEEEDKNSGKAPRAQYVLAEQVTRLVHGEEGLQAAKRITECLFSGSLSALSEADFEQLAQDGVPMVEMEKGADLMQALVDSELQPSRGQARKTIASNAITINGEKQSDPEYFFKEEDRLFGRFTLLRRGKKNYCLICWK
B2: 37A: E. coli TyrRS variant: position 37 Alanine, position 195 Glutamine (protein, UniProt P0AGJ9 2-424, looked up, variant Y37A)
Tyrosine--tRNA ligase: ASSNLIKQLQERGLVAQVTDEEALAERLAQGPIALACGFDPTADSLHLGHLVPLLCLKRFQQAGHKPVALVGGATGLIGDPSFKAAERKLNTEETVQEWVDKIRKQVAPFLDFDCGENSAIAANNYDWFGNMNVLTFLRDIGKHFSVNQMINKEAVKQRLNREDQGISFTEFSYNLLQGYDFACLNKQYGVVLQIGGSDQWGNITSGIDLTRRLHQNQVFGLTVPLITKADGTKFGKTEGGAVWLDPKKTSPYKFYQFWINTADADVYRFLKFFTFMSIEEINALEEEDKNSGKAPRAQYVLAEQVTRLVHGEEGLQAAKRITECLFSGSLSALSEADFEQLAQDGVPMVEMEKGADLMQALVDSELQPSRGQARKTIASNAITINGEKQSDPEYFFKEEDRLFGRFTLLRRGKKNYCLICWK
B3: 37L: E. coli TyrRS variant: position 37 Leucine, position 195 Glutamine (protein, UniProt P0AGJ9 2-424, looked up, variant Y37L)
Tyrosine--tRNA ligase: B2 Tyrosine--tRNA ligase with A36L
B4: 195N: E. coli TyrRS variant: position 37 Tyrosine, position 195 Asparagine (protein, UniProt P0AGJ9 2-424, looked up, variant Q195N)
Tyrosine--tRNA ligase: B2 Tyrosine--tRNA ligase with A36Y, Q194N
B5: 195C: E. coli TyrRS variant: position 37 Tyrosine, position 195 Cysteine (protein, UniProt P0AGJ9 2-424, looked up, variant Q195C)
Tyrosine--tRNA ligase: B2 Tyrosine--tRNA ligase with A36Y, Q194C
B6: 195S: E. coli TyrRS variant: position 37 Tyrosine, position 195 Serine (protein, UniProt P0AGJ9 2-424, looked up, variant Q195S)
Tyrosine--tRNA ligase: B2 Tyrosine--tRNA ligase with A36Y, Q194S
B7: 37I: E. coli TyrRS variant: position 37 Isoleucine, position 195 Glutamine (protein, UniProt P0AGJ9 2-424, looked up, variant Y37I)
Tyrosine--tRNA ligase: B2 Tyrosine--tRNA ligase with A36I
B8: 195A: E. coli TyrRS variant: position 37 Tyrosine, position 195 Alanine (protein, UniProt P0AGJ9 2-424, looked up, variant Q195A)
Tyrosine--tRNA ligase: B2 Tyrosine--tRNA ligase with A36Y, Q194A
B9: IC: E. coli TyrRS double variant: position 37 Isoleucine, position 195 Cysteine (protein, UniProt P0AGJ9 2-424, looked up, variant Y37I Q195C)
Tyrosine--tRNA ligase: B2 Tyrosine--tRNA ligase with A36I, Q194C
B10: LA: E. coli TyrRS double variant: position 37 Leucine, position 195 Alanine (protein, UniProt P0AGJ9 2-424, looked up, variant Y37L Q195A)
Tyrosine--tRNA ligase: B2 Tyrosine--tRNA ligase with A36L, Q194A
B11: AA: E. coli TyrRS double variant: position 37 Alanine, position 195 Alanine (protein, UniProt P0AGJ9 2-424, looked up, variant Y37A Q195A)
Tyrosine--tRNA ligase: B2 Tyrosine--tRNA ligase with Q194A
B12: LN: E. coli TyrRS double variant: position 37 Leucine, position 195 Asparagine (protein, UniProt P0AGJ9 2-424, looked up, variant Y37L Q195N)
Tyrosine--tRNA ligase: B2 Tyrosine--tRNA ligase with A36L, Q194N
B13: IS: E. coli TyrRS double variant: position 37 Isoleucine, position 195 Serine (protein, UniProt P0AGJ9 2-424, looked up, variant Y37I Q195S)
Tyrosine--tRNA ligase: B2 Tyrosine--tRNA ligase with A36I, Q194S
B14: AN: E. coli TyrRS double variant: position 37 Alanine, position 195 Asparagine (protein, UniProt P0AGJ9 2-424, looked up, variant Y37A Q195N)
Tyrosine--tRNA ligase: B2 Tyrosine--tRNA ligase with Q194N
B15: IN: E. coli TyrRS double variant: position 37 Isoleucine, position 195 Asparagine (protein, UniProt P0AGJ9 2-424, looked up, variant Y37I Q195N)
Tyrosine--tRNA ligase: B2 Tyrosine--tRNA ligase with A36I, Q194N
B16: LS: E. coli TyrRS double variant: position 37 Leucine, position 195 Serine (protein, UniProt P0AGJ9 2-424, looked up, variant Y37L Q195S)
Tyrosine--tRNA ligase: B2 Tyrosine--tRNA ligase with A36L, Q194S

Test: Aminoacylation activity by Lloyd's method (release of pyrophosphates)
Format: biochemical
Conditions: at 37° C.; 200 μM 3-iodotyrosine
Protocol: In the second method, Lloyd's method (Nucleic Acids Research, 23:2886-2892, 1995) was carried out without alteration.
In the second method, the activity was assayed by Lloyd's method (Nucleic Acids Research, 23:2886-2892, 1995). Each enzyme obtained was incubated with 0.4 ml of the buffer B containing 1 mM ATP (Seikagaku Corporation), 100 μM purified crude tyrosyl-tRNA, 200 μM tyrosine or 3-iodotyrosine at 37° C. for 6 min. The aminoacylation activity was represented as concentrations of released phosphate per min.

Row | Molecule | Initial velocity of release of pyrophosphates, 3-iodotyrosine
1 | B1 | <0.05 nM PPi/min/nM enzyme
2 | B2 | 12 nM PPi/min/nM enzyme

Same assay, conditions: at 37° C.; 200 μM tyrosine

Row | Molecule | Initial velocity of release of pyrophosphates, Tyrosine
3 | B1 | 400 nM PPi/min/nM enzyme
4 | B2 | 51 nM PPi/min/nM enzyme

Test: Aminoacylation reaction, simplified Lloyd's method, inorganic phosphate detected with Biomol green
Format: biochemical
Parameters: key: ***: the aminoacylation reaction was detected by a microplate reader in the reaction at enzyme concentrations of 50 nM; **: 500 nM; *: 5 μM; the activity is high in the order of *** > ** > * > —
Conditions: Table 2; 3-iodotyrosine 1 mM; 37° C. for 4 min
Protocol: (§1) In the first method, Lloyd's method (Nucleic Acids Research, 23:2886-2892, 1995) where inorganic phosphate produced by pyrophosphatase-drived hydrolysis of pyrophosphate which was one of the reaction products of the aminoacylation reactions was quantified was simplified, and the inorganic phosphate was detected using Biomol green (Funakoshi) to carry out the measurement of the aminoacylation reaction.
(§2) Amino acid concentrations were 200 μM and 1 mM for tyrosine and 3-iodotyrosine, respectively.
(§3) The method where the aminoacylation reaction is measured by quantifying inorganic phosphate produced by pyrophosphatase-drived hydrolysis of pyrophosphate which is one of reaction products of the aminoacylation has been described by Lloyd et al. (Nucleic Acids Research, 23:2886-2892, 1995). In one method of the invention, this method was simplified and the aminoacylation reaction was measured by the detection of inorganic phosphate using Biomol green (Funakoshi). Each enzyme obtained was incubated with 0.05 ml of the buffer B containing 1 mM ATP (Seikagaku Corporation), 30 μM purified crude tyrosyl-tRNA, and 100 μM tyrosine or 0.5 mM 3-iodotyrosine at 37° C. for one hour. To stop the reaction, 0.1 ml of Bio mol green was added. Absorbance of its supernatant was measured at 630 nm.

Row | Molecule | Aminoacylation activity, 3-iodotyrosine
5 | B1 | —
6 | B3 | ***
7 | B4 | *
8 | B2 | ***
9 | B5 | *
10 | B6 | *
11 | B7 | ***
12 | B8 | *

Same assay, conditions: Table 3; 3-iodotyrosine 1 mM; 37° C. for 4 min

Row | Molecule | Aminoacylation activity, 3-iodotyrosine
13 | B1 | —
14 | B9 | —
15 | B10 | —
16 | B11 | —
17 | B12 | —
18 | B13 | —
19 | B14 | —
20 | B15 | —
21 | B16 | —

Test: as above
Format: biochemical
Parameters: key: ***: the reaction could be detected strongly at 25 nM; **: strongly at 250 nM; *: weakly at 250 nM; the activity is high in the order of *** > ** > * > —
Conditions: Table 3; tyrosine 200 μM; 37° C. for 4 min
Protocol: as §1, §2
as §3, with “Each enzyme obtained was incubated with 0.05 ml of the buffer B containing 1 mM ATP (Seikagaku Corporation), 30 μM purified crude tyrosyl-tRNA, and 100 μM tyrosine or 0.5 mM 3-iodotyrosine at 37° C. for one hour.” left out

Row | Molecule | Aminoacylation activity, Tyrosine
22 | B1 | ***
23 | B10 | *
24 | B12 | *

Test: as above
Format: biochemical
Parameters: key: ***: the aminoacylation reaction was detected by a microplate reader in the reaction at enzyme concentrations of 50 nM; **: 500 nM; *: 5 μM; the activity is high in the order of *** > ** > * > —
Conditions: Table 2; tyrosine 200 μM; 37° C. for 4 min
Protocol: as §1, §2
as §3, with “Each enzyme obtained was incubated with 0.05 ml of the buffer B containing 1 mM ATP (Seikagaku Corporation), 30 μM purified crude tyrosyl-tRNA, and 100 μM tyrosine or 0.5 mM 3-iodotyrosine at 37° C. for one hour.” left out

Row | Molecule | Aminoacylation activity, Tyrosine
25 | B1 | ***
26 | B3 | ***
27 | B4 | ***
28 | B2 | ***
29 | B5 | ***
30 | B6 | ***
31 | B7 | **
32 | B8 | ***

Same assay, conditions: Table 3; tyrosine 200 μM; 37° C. for 4 min

Row | Molecule | Aminoacylation activity, Tyrosine
33 | B9 | —
34 | B11 | —
35 | B13 | —
36 | B14 | —
37 | B15 | —
38 | B16 | —
